# T1: His-RecA WT, activated as RecA* (nucleoprotein filament on ssDNA with ATPγS) (E. coli, UniProt P0A7G6 1-353)
# T1 construct: RecA, E. coli; source: E. coli ΔrecA BLR(DE3), purified (cobalt resin, ammonium sulfate, heparin); not shown: poly-His, N-terminal, kept
# T1 sequence (looked up): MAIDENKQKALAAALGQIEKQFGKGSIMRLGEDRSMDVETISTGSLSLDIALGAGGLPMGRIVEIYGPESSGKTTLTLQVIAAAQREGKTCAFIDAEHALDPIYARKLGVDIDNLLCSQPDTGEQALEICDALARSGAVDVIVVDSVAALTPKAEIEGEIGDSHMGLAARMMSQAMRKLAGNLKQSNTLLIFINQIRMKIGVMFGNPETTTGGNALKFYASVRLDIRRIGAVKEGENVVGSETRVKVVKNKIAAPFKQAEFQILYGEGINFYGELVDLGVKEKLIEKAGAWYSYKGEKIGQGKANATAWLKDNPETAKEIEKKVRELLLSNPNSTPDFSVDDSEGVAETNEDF
# Key:
# [1] = target: T1, His-RecA WT, activated as RecA* …; assay: fluorescence polarisation; competition, fluorescence anisotropy; unlabeled LexA K156A or QM (140 nM to 18.3 µM) spiked into pre-formed RecA* alongside LexA Q161δ; three-parameter dose-response fit; details: both partners purified
# [2] = target: the molecule itself; assay: cryo-EM structure; RecA* pre-formed from 5 µM His-RecA WT and 1 µM GGT 90-mer ssDNA in 70 mM Tris-HCl pH 7.5, 150 mM NaCl, 1 mM MgCl2, 2 mM TCEP, 0.25 mM ATPγS, 20 min; LexA K156A added to 25 µM, 30 min, room temperature
binder,measurement,setting,value
"His-LexA K156A (natural protein, E. coli, UniProt P0A7C2 1-202, looked up, LexA repressor, E. coli; source: E. coli BL21(DE3), purified (cobalt resin, heparin)) MKALTARQQEVFDLIRDHISQTGMPPTRAEIAQRLGFRSPNAAEEHLKALARKGVIEIVSGASRGIRLLQEEEEGLPLVGRVAAGEPLLAQQHIEGHYQVDPSLFKPNADFLLRVSGMSMKDIGIMDGDLLAVHKTQDVRNGQVVVARIDDEVTVARLKKQGNKVELLPENSEFKPIVVDLRQQSFTIEGLAVGVIRNGDWL",binding result,[1],binds
"untagged LexA K156A (full-length, catalytically inactive) (natural protein, E. coli, UniProt P0A7C2 1-202, looked up, LexA repressor, E. coli; Used for cryo-EM only; source: E. coli BL21(DE3), purified (cobalt resin, heparin; His-tag removed with thrombin); not shown: poly-His, N-terminal, cleaved) MKALTARQQEVFDLIRDHISQTGMPPTRAEIAQRLGFRSPNAAEEHLKALARKGVIEIVSGASRGIRLLQEEEEGLPLVGRVAAGEPLLAQQHIEGHYQVDPSLFKPNADFLLRVSGMSMKDIGIMDGDLLAVHKTQDVRNGQVVVARIDDEVTVARLKKQGNKVELLPENSEFKPIVVDLRQQSFTIEGLAVGVIRNGDWL",binding result,[2],binds
"LexA quad-mutant (QM): L89P, Q92W, E152A, K156A (natural protein, E. coli, UniProt P0A7C2 1-202, looked up, LexA repressor, E. coli; also called LexA QM; hyperactive LexA variant; source: E. coli BL21(DE3), purified (cobalt resin, heparin)) MKALTARQQEVFDLIRDHISQTGMPPTRAEIAQRLGFRSPNAAEEHLKALARKGVIEIVSGASRGIRLLQEEEEGLPLVGRVAAGEPLPAQWHIEGHYQVDPSLFKPNADFLLRVSGMSMKDIGIMDGDLLAVHKTQDVRNGQVVVARIDDAVTVARLKKQGNKVELLPENSEFKPIVVDLRQQSFTIEGLAVGVIRNGDWL",fold weaker binding relative to LexA K156A,[1],~8 fold

# From publication doi:10.1101/2023.10.30.564768, “The LexA-RecA* structure reveals a lock-and-key mechanism for SOS activation” (bioRxiv, 2023)
